Publication PMC8368038 (The Journal of Biological Chemistry, 2021)

B1: KANK1_ANKRD^SF (Trx-tagged) (domain or fragment, mouse, UniProt E9Q238 1081-1360, looked up)
chain: EPEKEEIRERYELSEKMLSACNLLKYNIKDPKALASKDMRICLNTLQHDWFRVSSQKSAVPAMVGDYIAAFEAVSPDVLRYIINMADGNGNTALHYSVFHSNFQIVKLLLDADVCNVDHQNKAGYTPIMLAALAAVEAEKDMQVVEELFSCGDVNAKASQAGQTALMLAVSHGRIDMVKGLLACGADVNIQDDEGSTALMCASEHGHVEIVKLLLAQPGCNGHLEDNDGSTALSIALEAGHKDIAVLLYAHLNFSKAQSPSTPRLGRKTSPGPTHRGSFD

Assays:
[1] = target: eukaryotic translation initiation factor 4A1 (eIF4A1), Trx-tagged (mouse, UniProt P60843 1-406); test: ITC
[2] = target: eIF4A1 Q148L (mouse, UniProt P60843 1-406, Q148L); test: ITC
[3] = target: B1; test: SEC
[4] = target: eIF4A1_NTD (residues 1-238, crystallised) (mouse, UniProt P60843 1-238); test: crystal structure

B1
binding result [1]: binds | Kd [2]: 1900 nM

B2: eIF4A1 NTD (residues 1-237) (domain or fragment, mouse, UniProt P60843 1-237, looked up)
chain: MSASQDSRSRDNGPDGMEPEGVIESNWNEIVDSFDDMNLSESLLRGIYAYGFEKPSAIQQRAILPCIKGYDVIAQAQSGTGKTATFAISILQQIELDLKATQALVLAPTRELAQQIQKVVMALGDYMGASCHACIGGTNVRAEVQKLQMEAPHIIVGTPGRVFDMLNRRYLSPKYIKMFVLDEADEMLSRGFKDQIYDIFQKLNSNTQVVLLSATMPSDVLEVTKKFMRDPIRILVK
binding result [3]: binds

B3: KANK1_ANKRD^SF (residues 1088-1338, crystallised) (domain or fragment, mouse, UniProt E9Q238 1088-1338, looked up)
chain: RERYELSEKMLSACNLLKYNIKDPKALASKDMRICLNTLQHDWFRVSSQKSAVPAMVGDYIAAFEAVSPDVLRYIINMADGNGNTALHYSVFHSNFQIVKLLLDADVCNVDHQNKAGYTPIMLAALAAVEAEKDMQVVEELFSCGDVNAKASQAGQTALMLAVSHGRIDMVKGLLACGADVNIQDDEGSTALMCASEHGHVEIVKLLLAQPGCNGHLEDNDGSTALSIALEAGHKDIAVLLYAHLNFSKAQ
stoichiometry N [4]: 1
